Test results as given in paper PMC7817833.

Tests used:
[1] = target: 14-3-3γ (UniProt P61981); test: co-immunoprecipitation of Myc-ENDOG, western blot; settings: reference: Myc-ENDOG wild type; sites T128,S288
[2] = target: 14-3-3γ (UniProt P61981); test: co-immunoprecipitation, western blot; settings: reference: wild-type ENDOG; sites T128,S288

Row | binding against the reference [1] | binding against the reference [2] | Substance
1 | weaker |  | ENDOG (Endonuclease G) (from UniProt Q14249) Myc-ENDOG-AA (T128A/S288A)
2 |  | weaker | ENDOG (Endonuclease G) (from UniProt Q14249) T128A/S288A (AA)
